# Results: patent publication US11795460B2, “Compositions and methods for TTR gene editing and treating ATTR amyloidosis” (Intellia Therapeutics, Inc., priority 2017, dated 2023)
# Strand notation (5' to 3'): a small letter for the sugar, then the base; units joined by * are phosphorothioate-linked, units joined directly phosphodiester-linked; [ ] holds rarer units or linkages, { } end groups; capitals alone tell only the bases. m = 2'-O-methyl; r = 2'-OH (RNA)
# B1: G000502: TTR Cyno specific sgRNA modified sequence, SEQ ID No. 114; guide sequence of CR000689; cross homologous between mouse and cyno (nucleic acid)
# guide: mA*mC*mA*rCrArArArUrArCrCrArGrUrCrCrArGrCrGrGrUrUrUrUrArGrAmGmCmUmAmGmAmAmAmUmAmGmCrArArGrUrUrArArArArUrArArGrGrCrUrArGrUrCrCrGrUrUrArUrCrAmAmCmUmUmGmAmAmAmAmAmGmUmGmGmCmAmCmCmGmAmGmUmCmGmGmUmGmCmU*mU*mU*mU
# Tested on: murine TTR
# Assay: Liver editing in mice with murine TTR dosed with LNP formulations (Table 29)
# Assay type: in vivo, mouse
# Conditions: wild type CD-1 mice; 1, 0.3, 0.1, 0.03, or 0.01 mg/kg; FIG. 15A
# Method: Unless otherwise noted, CD-1 female mice, ranging from 6-10 weeks of age were used in each study. Animals were weighed and grouped according to body weight for preparing dosing solutions based on group average weight. LNPs were dosed via the lateral tail vein in a volume of 0.2 mL per animal (approximately 10 mL per kilogram body weight). […] Body weight was measured at twenty-four hours post-administration, and animals were euthanized at various time points by exsanguination via cardiac puncture under isoflourane anesthesia. Blood was collected into serum separator tubes or into tubes containing buffered sodium citrate for plasma as described herein. […]
# To quantitatively determine the efficiency of editing at the target location in the genome, sequencing was utilized to identify the presence of insertions and deletions introduced by gene editing. […]
# Additional PCR was performed per the manufacturer's protocols (Illumina) to add chemistry for sequencing. […] The reads were aligned to a reference genome (e.g., the human reference genome (hg38), the cynomologus reference genome (mf5), the rat reference genome (rn6), or the mouse reference genome (mm10)) after eliminating those having low quality scores. […]
molecule,measurement,value
B1,"Liver editing, dose response",A dose response for both editing and serum TTR levels was evident
